Measured values reported in patent US20250304643A1 (BAINAN BIOTECH, published 2025).
*1 amine or outer side, *2 acyl side, *3 side chain or, on linkers, in order; H or OH if unused. Where no end group is shown, it is not given here. Side-chain parts run from the residue outwards. [ ]: non-standard residue; d: D form. The star is where a group is joined. C16 diacid = O=C(O)CCCCCCCCCCCCCCC(=O)*; γGlu = O=C(O)[C@H](CCC(=O)[*:2])N[*:1]; Palmitoyl = CCCCCCCCCCCCCCCC(=O)*; Decanoyl = CCCCCCCCCC(=O)*; Aib = CC(C)(N)C(=O)O

T1: human glucose-dependent insulinotropic polypeptide receptor (human, UniProt P48546 22-466)
T1 sequence (looked up): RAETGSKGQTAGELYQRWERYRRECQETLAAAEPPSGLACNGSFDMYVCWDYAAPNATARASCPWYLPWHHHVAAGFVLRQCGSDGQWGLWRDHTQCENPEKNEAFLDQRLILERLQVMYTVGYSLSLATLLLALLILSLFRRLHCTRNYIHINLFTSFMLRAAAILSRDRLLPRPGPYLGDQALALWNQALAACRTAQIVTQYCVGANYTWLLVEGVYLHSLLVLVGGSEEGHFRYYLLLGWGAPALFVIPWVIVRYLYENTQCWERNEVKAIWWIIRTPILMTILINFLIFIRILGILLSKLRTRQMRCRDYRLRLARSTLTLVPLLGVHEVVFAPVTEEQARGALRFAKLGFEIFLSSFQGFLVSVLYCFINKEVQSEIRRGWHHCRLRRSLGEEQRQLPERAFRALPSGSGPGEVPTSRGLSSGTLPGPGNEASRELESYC

T2: human glucagon-like peptide-2 receptor (human, UniProt O95838 1-553)
T2 sequence (looked up): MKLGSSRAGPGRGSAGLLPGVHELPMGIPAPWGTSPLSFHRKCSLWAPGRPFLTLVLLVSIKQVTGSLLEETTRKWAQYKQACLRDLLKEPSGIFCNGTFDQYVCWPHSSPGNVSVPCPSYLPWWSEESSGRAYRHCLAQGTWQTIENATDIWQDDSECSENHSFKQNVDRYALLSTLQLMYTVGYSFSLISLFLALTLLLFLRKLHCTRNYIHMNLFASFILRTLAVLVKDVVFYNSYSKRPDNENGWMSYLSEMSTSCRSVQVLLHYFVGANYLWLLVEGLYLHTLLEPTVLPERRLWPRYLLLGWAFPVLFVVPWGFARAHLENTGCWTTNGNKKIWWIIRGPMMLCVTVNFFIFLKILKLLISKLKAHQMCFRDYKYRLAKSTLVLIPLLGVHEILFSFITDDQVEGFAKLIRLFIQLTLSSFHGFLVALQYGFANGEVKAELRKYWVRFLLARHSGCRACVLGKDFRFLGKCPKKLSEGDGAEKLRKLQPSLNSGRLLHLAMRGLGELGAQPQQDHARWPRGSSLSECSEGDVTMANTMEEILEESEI


Experiments:
[1] = target: T1, human glucose-dependent insulinotropic …; experiment: cell-based or functional assay
[2] = target: T2, human glucagon-like peptide-2 receptor; experiment: cell-based or functional assay

Row | Efficacy GIPR [1] | Efficacy GLP-2R [2] | logEC50 GLP-2R [2] | Binder
1 | 105% | 99% | – | H[Aib]DGK([γGlu-γGlu-Palmitoyl])FISDYST[Aib]LDNLAARDFINWLIQTKITK-OH (N-terminus assumed; SMILES CCCCCCCCCCCCCCCC(=O)N[C@@H](CCC(=O)N[C@@H](CCC(=O)NCCCC[C@H](NC(=O)CNC(=O)[C@H](CC(=O)O)NC(=O)C(C)(C)NC(=O)[C@@H](N)Cc1c[nH]cn1)C(=O)N[C@@H](Cc1ccccc1)C(=O)N[C@H](C(=O)N[C@@H](CO)C(=O)N[C@@H](CC(=O)O)C(=O)N[C@@H](Cc1ccc(O)cc1)C(=O)N[C@@H](CO)C(=O)N[C@H](C(=O)NC(C)(C)C(=O)N[C@@H](CC(C)C)C(=O)N[C@@H](CC(=O)O)C(=O)N[C@@H](CC(N)=O)C(=O)N[C@@H](CC(C)C)C(=O)N[C@@H](C)C(=O)N[C@@H](C)C(=O)N[C@@H](CCCNC(=N)N)C(=O)N[C@@H](CC(=O)O)C(=O)N[C@@H](Cc1ccccc1)C(=O)N[C@H](C(=O)N[C@@H](CC(N)=O)C(=O)N[C@@H](Cc1c[nH]c2ccccc12)C(=O)N[C@@H](CC(C)C)C(=O)N[C@H](C(=O)N[C@@H](CCC(N)=O)C(=O)N[C@H](C(=O)N[C@@H](CCCCN)C(=O)N[C@H](C(=O)N[C@H](C(=O)N[C@@H](CCCCN)C(=O)O)[C@@H](C)O)[C@@H](C)CC)[C@@H](C)O)[C@@H](C)CC)[C@@H](C)CC)[C@@H](C)O)[C@@H](C)CC)C(=O)O)C(=O)O) [Compound no. 28]
2 | 80% | 91% | – | H[Aib]DGK([γGlu-γGlu-Decanoyl])FISDYSTILDNLAARDFINWLIQTKITK-OH (N-terminus assumed; SMILES CCCCCCCCCC(=O)N[C@@H](CCC(=O)N[C@@H](CCC(=O)NCCCC[C@H](NC(=O)CNC(=O)[C@H](CC(=O)O)NC(=O)C(C)(C)NC(=O)[C@@H](N)Cc1c[nH]cn1)C(=O)N[C@@H](Cc1ccccc1)C(=O)N[C@H](C(=O)N[C@@H](CO)C(=O)N[C@@H](CC(=O)O)C(=O)N[C@@H](Cc1ccc(O)cc1)C(=O)N[C@@H](CO)C(=O)N[C@H](C(=O)N[C@H](C(=O)N[C@@H](CC(C)C)C(=O)N[C@@H](CC(=O)O)C(=O)N[C@@H](CC(N)=O)C(=O)N[C@@H](CC(C)C)C(=O)N[C@@H](C)C(=O)N[C@@H](C)C(=O)N[C@@H](CCCNC(=N)N)C(=O)N[C@@H](CC(=O)O)C(=O)N[C@@H](Cc1ccccc1)C(=O)N[C@H](C(=O)N[C@@H](CC(N)=O)C(=O)N[C@@H](Cc1c[nH]c2ccccc12)C(=O)N[C@@H](CC(C)C)C(=O)N[C@H](C(=O)N[C@@H](CCC(N)=O)C(=O)N[C@H](C(=O)N[C@@H](CCCCN)C(=O)N[C@H](C(=O)N[C@H](C(=O)N[C@@H](CCCCN)C(=O)O)[C@@H](C)O)[C@@H](C)CC)[C@@H](C)O)[C@@H](C)CC)[C@@H](C)CC)[C@@H](C)CC)[C@@H](C)O)[C@@H](C)CC)C(=O)O)C(=O)O) [Compound no. 26]
3 | 93% | 88% | 9 | H[Aib]DGK([γGlu-C16 diacid])FISDYST[Aib]LDNLAARDFINWLIQTKITK-OH (N-terminus assumed; SMILES CC[C@H](C)[C@H](NC(=O)[C@H](Cc1ccccc1)NC(=O)[C@H](CCCCNC(=O)CC[C@H](NC(=O)CCCCCCCCCCCCCCC(=O)O)C(=O)O)NC(=O)CNC(=O)[C@H](CC(=O)O)NC(=O)C(C)(C)NC(=O)[C@@H](N)Cc1c[nH]cn1)C(=O)N[C@@H](CO)C(=O)N[C@@H](CC(=O)O)C(=O)N[C@@H](Cc1ccc(O)cc1)C(=O)N[C@@H](CO)C(=O)N[C@H](C(=O)NC(C)(C)C(=O)N[C@@H](CC(C)C)C(=O)N[C@@H](CC(=O)O)C(=O)N[C@@H](CC(N)=O)C(=O)N[C@@H](CC(C)C)C(=O)N[C@@H](C)C(=O)N[C@@H](C)C(=O)N[C@@H](CCCNC(=N)N)C(=O)N[C@@H](CC(=O)O)C(=O)N[C@@H](Cc1ccccc1)C(=O)N[C@H](C(=O)N[C@@H](CC(N)=O)C(=O)N[C@@H](Cc1c[nH]c2ccccc12)C(=O)N[C@@H](CC(C)C)C(=O)N[C@H](C(=O)N[C@@H](CCC(N)=O)C(=O)N[C@H](C(=O)N[C@@H](CCCCN)C(=O)N[C@H](C(=O)N[C@H](C(=O)N[C@@H](CCCCN)C(=O)O)[C@@H](C)O)[C@@H](C)CC)[C@@H](C)O)[C@@H](C)CC)[C@@H](C)CC)[C@@H](C)O) [Compound no. 25]
4 | 113% | 90% | – | H[Aib]DGK([γGlu-Decanoyl])FISDYST[Aib]LDNLAARDFINWLIQTKITK-OH (N-terminus assumed; SMILES CCCCCCCCCC(=O)N[C@@H](CCC(=O)NCCCC[C@H](NC(=O)CNC(=O)[C@H](CC(=O)O)NC(=O)C(C)(C)NC(=O)[C@@H](N)Cc1c[nH]cn1)C(=O)N[C@@H](Cc1ccccc1)C(=O)N[C@H](C(=O)N[C@@H](CO)C(=O)N[C@@H](CC(=O)O)C(=O)N[C@@H](Cc1ccc(O)cc1)C(=O)N[C@@H](CO)C(=O)N[C@H](C(=O)NC(C)(C)C(=O)N[C@@H](CC(C)C)C(=O)N[C@@H](CC(=O)O)C(=O)N[C@@H](CC(N)=O)C(=O)N[C@@H](CC(C)C)C(=O)N[C@@H](C)C(=O)N[C@@H](C)C(=O)N[C@@H](CCCNC(=N)N)C(=O)N[C@@H](CC(=O)O)C(=O)N[C@@H](Cc1ccccc1)C(=O)N[C@H](C(=O)N[C@@H](CC(N)=O)C(=O)N[C@@H](Cc1c[nH]c2ccccc12)C(=O)N[C@@H](CC(C)C)C(=O)N[C@H](C(=O)N[C@@H](CCC(N)=O)C(=O)N[C@H](C(=O)N[C@@H](CCCCN)C(=O)N[C@H](C(=O)N[C@H](C(=O)N[C@@H](CCCCN)C(=O)O)[C@@H](C)O)[C@@H](C)CC)[C@@H](C)O)[C@@H](C)CC)[C@@H](C)CC)[C@@H](C)O)[C@@H](C)CC)C(=O)O) [Compound no. 24]
5 | 98% | 108% | – | H[Aib]EGK([γGlu-Palmitoyl])FISDYST[Aib]LDNLAARDFINWLIQTKITK-OH (N-terminus assumed; SMILES CCCCCCCCCCCCCCCC(=O)N[C@@H](CCC(=O)NCCCC[C@H](NC(=O)CNC(=O)[C@H](CCC(=O)O)NC(=O)C(C)(C)NC(=O)[C@@H](N)Cc1c[nH]cn1)C(=O)N[C@@H](Cc1ccccc1)C(=O)N[C@H](C(=O)N[C@@H](CO)C(=O)N[C@@H](CC(=O)O)C(=O)N[C@@H](Cc1ccc(O)cc1)C(=O)N[C@@H](CO)C(=O)N[C@H](C(=O)NC(C)(C)C(=O)N[C@@H](CC(C)C)C(=O)N[C@@H](CC(=O)O)C(=O)N[C@@H](CC(N)=O)C(=O)N[C@@H](CC(C)C)C(=O)N[C@@H](C)C(=O)N[C@@H](C)C(=O)N[C@@H](CCCNC(=N)N)C(=O)N[C@@H](CC(=O)O)C(=O)N[C@@H](Cc1ccccc1)C(=O)N[C@H](C(=O)N[C@@H](CC(N)=O)C(=O)N[C@@H](Cc1c[nH]c2ccccc12)C(=O)N[C@@H](CC(C)C)C(=O)N[C@H](C(=O)N[C@@H](CCC(N)=O)C(=O)N[C@H](C(=O)N[C@@H](CCCCN)C(=O)N[C@H](C(=O)N[C@H](C(=O)N[C@@H](CCCCN)C(=O)O)[C@@H](C)O)[C@@H](C)CC)[C@@H](C)O)[C@@H](C)CC)[C@@H](C)CC)[C@@H](C)O)[C@@H](C)CC)C(=O)O) [Compound no. 27]
6 | 104% | 124% | – | H[Aib]DGTFISDYK([γGlu-Palmitoyl])T[Aib]LDNLAARDFINWLIQTKITK-OH (N-terminus assumed; SMILES CCCCCCCCCCCCCCCC(=O)N[C@@H](CCC(=O)NCCCC[C@H](NC(=O)[C@H](Cc1ccc(O)cc1)NC(=O)[C@H](CC(=O)O)NC(=O)[C@H](CO)NC(=O)[C@@H](NC(=O)[C@H](Cc1ccccc1)NC(=O)[C@@H](NC(=O)CNC(=O)[C@H](CC(=O)O)NC(=O)C(C)(C)NC(=O)[C@@H](N)Cc1c[nH]cn1)[C@@H](C)O)[C@@H](C)CC)C(=O)N[C@H](C(=O)NC(C)(C)C(=O)N[C@@H](CC(C)C)C(=O)N[C@@H](CC(=O)O)C(=O)N[C@@H](CC(N)=O)C(=O)N[C@@H](CC(C)C)C(=O)N[C@@H](C)C(=O)N[C@@H](C)C(=O)N[C@@H](CCCNC(=N)N)C(=O)N[C@@H](CC(=O)O)C(=O)N[C@@H](Cc1ccccc1)C(=O)N[C@H](C(=O)N[C@@H](CC(N)=O)C(=O)N[C@@H](Cc1c[nH]c2ccccc12)C(=O)N[C@@H](CC(C)C)C(=O)N[C@H](C(=O)N[C@@H](CCC(N)=O)C(=O)N[C@H](C(=O)N[C@@H](CCCCN)C(=O)N[C@H](C(=O)N[C@H](C(=O)N[C@@H](CCCCN)C(=O)O)[C@@H](C)O)[C@@H](C)CC)[C@@H](C)O)[C@@H](C)CC)[C@@H](C)CC)[C@@H](C)O)C(=O)O) [Compound no. 29]
